# Data taken from paper PMC5943355.
# Biological target: Na+,HCO3- co-transporter NBCn1 (SLC4A7), native in MDCK-II cells (canine (endogenous in MDCK-II))
# Assay: proximity ligation; in situ PLA (Duolink II) with primary antibodies against NBCn1 and RACK1 in fixed non-confluent (60-70% confluency) MDCK-II or MCF-7 cells; control with only NBCn1 antibody
substance,measurement,value
"RACK1, native in MDCK-II cells (natural protein)","PLA signal, fold above the control with only NBCn1 antibody",8 fold
